Laboratory results: US20210388087A1 (Chugai, published 2021)
Residue numbers refer to the chain shown, from its start. In names and notes the source's numbering stands.

B1: CE115HA000 K52bD one-arm antibody (antibody, human IgG1, kappa, L234A L235A, N297A, name in Kabat numbering)
heavy: QVQLVESGGGVVQPGRSLRLSCAASGFTFSNAWMHWVRQAPGKGLEWVAQIKADSNNYATYYAESVKGRFTISRDDSKNSLYLQMNSLKTEDTAVYYCRYVHYGAYYGVDAWGQGTTVTVSSASTKGPSVFPLAPSSKSTSGGTAALGCLVKDYFPEPVTVSWNSGALTSGVHTFPAVLQSSGLYSLSSVVTVPSSSLGTQTYICNVNHKPSNTKVDKKVEPKSCDKTHTCPPCPAPEAAGGPSVFLFPPKPKDTLMISRTPEVTCVVVDVSHEDPEVKFNWYVDGVEVHNAKTKPREEQYASTYRVVSVLTVLHQDWLNGKEYKCKVSNKALPAPIEKTISKAKGQPREPQVYTLPPSRCELTKNQVSLSCAVKGFYPSDIAVEWESNGQPENNYKTTPPVLDSDGSFFLVSKLTVDKSRWQQGNVFSCSVMHEALHNHYTQKSLSLSPDYKDDDDK
chain: EPKSSDKTHTCPPCPAPELLGGPSVFLFPPKPKDTLMISRTPEVTCVVVDVSHEDPEVKFNWYVDGVEVHNAKTKPREEQYNSTYRVVSVLTVLHQDWLNGKEYKCKVSNKALPAPIEKTISKAKGQPREPQVCTLPPSRDELTKNQVSLWCLVKGFYPSDIAVEWESNGQPENNYKTTPPVLDSDGSFFLYSKLTVDKSRWQQGNVFSCSVMHEALHNRYTQKSLSLSP
light: DIVMTQSPLSLPVTPGEPASISCRSSQSLVHSNRNTYLHWYQQKPGQAPRLLIYKVSNRFSGVPDRFSGSGSGTDFTLKISRVEAEDVGVYYCGQGTQVPYTFGQGTKLEIKRTVAAPSVFIFPPSDEQLKSGTASVVCLLNNFYPREAKVQWKVDNALQSGNSQESVTEQDSKDSTYSLSSTLTLSKADYEKHKVYACEVTHQGLSSPVTKSFNRGEC
B2: CE115HA000 N31W one-arm antibody (antibody, human IgG1, kappa, L234A L235A, N297A, name in Kabat numbering)
heavy: B1 heavy with N31W, D54K
chain: B1 chain
light: B1 light
B3: CE115HA000 K52bN one-arm antibody (antibody, human IgG1, kappa, L234A L235A, N297A, name in Kabat numbering)
heavy: B1 heavy with D54N
chain: B1 chain
light: B1 light
B4: CE115HA000 K52bS one-arm antibody (antibody, human IgG1, kappa, L234A L235A, N297A, name in Kabat numbering)
heavy: B1 heavy with D54S
chain: B1 chain
light: B1 light
B5: CE115HA000 N53I one-arm antibody (antibody, human IgG1, kappa, L234A L235A, N297A, name in Kabat numbering)
heavy: B1 heavy with D54K, N56I
chain: B1 chain
light: B1 light
B6: CE115HA000 N31K one-arm antibody (antibody, human IgG1, kappa, L234A L235A, N297A, name in Kabat numbering)
heavy: B1 heavy with N31K, D54K
chain: B1 chain
light: B1 light
B7: CE115HA000 K64Q one-arm antibody (antibody, human IgG1, kappa, L234A L235A, N297A, name in Kabat numbering)
heavy: B1 heavy with D54K, K67Q
chain: B1 chain
light: B1 light
B8: CE115HA000 N53G one-arm antibody (antibody, human IgG1, kappa, L234A L235A, N297A, name in Kabat numbering)
heavy: B1 heavy with D54K, N56G
chain: B1 chain
light: B1 light
B9: CE115HA000 N31H one-arm antibody (antibody, human IgG1, kappa, L234A L235A, N297A, name in Kabat numbering)
heavy: B1 heavy with N31H, D54K
chain: B1 chain
light: B1 light
B10: CE115HA000 K52bR one-arm antibody (antibody, human IgG1, kappa, L234A L235A, N297A, name in Kabat numbering)
heavy: B1 heavy with D54R
chain: B1 chain
light: B1 light
B11: CE115HA000 K64S one-arm antibody (antibody, human IgG1, kappa, L234A L235A, N297A, name in Kabat numbering)
heavy: B1 heavy with D54K, K67S
chain: B1 chain
light: B1 light
B12: CE115HA000 K75R one-arm antibody (antibody, human IgG1, kappa, L234A L235A, N297A, name in Kabat numbering)
heavy: B1 heavy with D54K, K78R
chain: B1 chain
light: B1 light
B13: CE115HA000 K75T one-arm antibody (antibody, human IgG1, kappa, L234A L235A, N297A, name in Kabat numbering)
heavy: B1 heavy with D54K, K78T
chain: B1 chain
light: B1 light
B14: CE115HA000 K52bY one-arm antibody (antibody, human IgG1, kappa, L234A L235A, N297A, name in Kabat numbering)
heavy: B1 heavy with D54Y
chain: B1 chain
light: B1 light
B15: CE115HA000 N31I one-arm antibody (antibody, human IgG1, kappa, L234A L235A, N297A, name in Kabat numbering)
heavy: B1 heavy with N31I, D54K
chain: B1 chain
light: B1 light
B16: CE115HA000 K52bL one-arm antibody (antibody, human IgG1, kappa, L234A L235A, N297A, name in Kabat numbering)
heavy: B1 heavy with D54L
chain: B1 chain
light: B1 light
B17: CE115HA000 N31G one-arm antibody (antibody, human IgG1, kappa, L234A L235A, N297A, name in Kabat numbering)
heavy: B1 heavy with N31G, D54K
chain: B1 chain
light: B1 light
B18: CE115HA000 N53H one-arm antibody (antibody, human IgG1, kappa, L234A L235A, N297A, name in Kabat numbering)
heavy: B1 heavy with D54K, N56H
chain: B1 chain
light: B1 light
B19: CE115HA000 K64E one-arm antibody (antibody, human IgG1, kappa, L234A L235A, N297A, name in Kabat numbering)
heavy: B1 heavy with D54K, K67E
chain: B1 chain
light: B1 light
B20: CE115HA000 K64A one-arm antibody (antibody, human IgG1, kappa, L234A L235A, N297A, name in Kabat numbering)
heavy: B1 heavy with D54K, K67A
chain: B1 chain
light: B1 light
B21: CE115HA000 N31F one-arm antibody (antibody, human IgG1, kappa, L234A L235A, N297A, name in Kabat numbering)
heavy: B1 heavy with N31F, D54K
chain: B1 chain
light: B1 light
B22: CE115HA000 N53D one-arm antibody (antibody, human IgG1, kappa, L234A L235A, N297A, name in Kabat numbering)
heavy: B1 heavy with D54K, N56D
chain: B1 chain
light: B1 light
B23: CE115HA000 N31D one-arm antibody (antibody, human IgG1, kappa, L234A L235A, N297A, name in Kabat numbering)
heavy: B1 heavy with N31D, D54K
chain: B1 chain
light: B1 light
B24: CE115HA000 N31R one-arm antibody (antibody, human IgG1, kappa, L234A L235A, N297A, name in Kabat numbering)
heavy: B1 heavy with N31R, D54K
chain: B1 chain
light: B1 light
B25: CE115HA000 K64D one-arm antibody (antibody, human IgG1, kappa, L234A L235A, N297A, name in Kabat numbering)
heavy: B1 heavy with D54K, K67D
chain: B1 chain
light: B1 light
B26: CE115HA000 N31S one-arm antibody (antibody, human IgG1, kappa, L234A L235A, N297A, name in Kabat numbering)
heavy: B1 heavy with N31S, D54K
chain: B1 chain
light: B1 light
B27: CE115HA000 N53K one-arm antibody (antibody, human IgG1, kappa, L234A L235A, N297A, name in Kabat numbering)
heavy: B1 heavy with D54K, N56K
chain: B1 chain
light: B1 light
B28: CE115HA000 K52bQ one-arm antibody (antibody, human IgG1, kappa, L234A L235A, N297A, name in Kabat numbering)
heavy: B1 heavy with D54Q
chain: B1 chain
light: B1 light
B29: CE115HA000 L78I one-arm antibody (antibody, human IgG1, kappa, L234A L235A, N297A, name in Kabat numbering)
heavy: B1 heavy with D54K, L81I
chain: B1 chain
light: B1 light
B30: CE115HA000 N53A one-arm antibody (antibody, human IgG1, kappa, L234A L235A, N297A, name in Kabat numbering)
heavy: B1 heavy with D54K, N56A
chain: B1 chain
light: B1 light
B31: CE115HA000 N31A one-arm antibody (antibody, human IgG1, kappa, L234A L235A, N297A, name in Kabat numbering)
heavy: B1 heavy with N31A, D54K
chain: B1 chain
light: B1 light
notes: one-arm antibody: altered VH on pE22Hh, Fc-only chain Kn010G3, GLS3000 on kappa; the same build holds for m3 to m260
B32: CE115HA000 N31Y one-arm antibody (antibody, human IgG1, kappa, L234A L235A, N297A, name in Kabat numbering)
heavy: B1 heavy with N31Y, D54K
chain: B1 chain
light: B1 light
B33: CE115HA000 N31Q one-arm antibody (antibody, human IgG1, kappa, L234A L235A, N297A, name in Kabat numbering)
heavy: B1 heavy with N31Q, D54K
chain: B1 chain
light: B1 light

Target: T1, CD3 epsilon homodimer protein (UniProt P07766 23-126)
T1 construct: immobilized on Sensor chip CM4 by amine coupling; also called CD3 (CD3 epsilon)
Test: SPR (Biacore T200), CD3 epsilon homodimer on CM4 chip, one-arm antibody as analyte, 25 C;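 also: homodimer attached to the sensor surface via amine coupling, HBS-EP+ used as running buffer during binding runs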

T1 sequence (P07766 23-126): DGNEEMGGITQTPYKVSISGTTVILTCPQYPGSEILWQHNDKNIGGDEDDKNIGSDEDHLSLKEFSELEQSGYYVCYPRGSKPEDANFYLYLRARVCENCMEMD

ratio of amounts bound (altered form / CE115HA000)	Binder
0.27	B1
0.63	B2
0.27	B3
0.68	B4
0.68	B5
1.01	B6
0.89	B7
0.5	B8
0.68	B9
1.11	B10
0.84	B11
1.01	B12
0.84	B13
0.74	B14
0.81	B15
0.61	B16
0.39	B17

ratio of amounts bound (altered form / CE115HA000)	Binder
0.76	B18
0.74	B19
0.82	B20
0.62	B21
0.39	B22
0.37	B23
1.14	B24
0.72	B25
0.81	B26
0.78	B27
0.6	B28
1.34	B29
0.7	B30
0.5	B31
0.64	B32
0.49	B33
